The test has as its target TSLP, Q969D9. The experiment in a line: Kd (SPR).

Substitutions are numbered along the chain they refer to.

B1: unnamed (protein)
chain 1: QMQLVESGGGVVQPGRSLRLSCAASGFTFSTFAMHWVRQAPGKGLEWVAVIWYDGSNKHYADSVKGRFTITRDNSKNTLNLQMNSLRAEDTAVYYCARAPRYDEYVEAFDVWGQGTMVTVSS
chain 2: SYVLTQPPSVSVAPGQTARITCGGNNLGSKSVHWYQQKPGQAPVLVVYDDSDRPSWIPERFSGSNSGNTATLTISRGEAGDEADYYCQVWDSSSDHVVFGGGTKLTVL
Turning to B1, the Kd (as a rule, the equilibrium constant for the complex coming apart) worked out at 129 nM.

B2: unnamed (protein)
chain 1: B1 chain 1 with A99S, E104Y, V106Y
chain 2: B1 chain 2
Turning to B2, the Kd was determined as 372 nM.

B3: unnamed (protein)
chain 1: B1 chain 1 with V106L
chain 2: B1 chain 2
Take B3: the dissociation constant (Kd) was 305 nM.

B4: unnamed (protein)
chain 1: B1 chain 1 with E104D, Y105A, V106Y
chain 2: B1 chain 2
The molecule B4 registered a Kd of 387 nM.

B5: unnamed (protein)
chain 1: B1 chain 1 with A99S, E104D, V106W
chain 2: B1 chain 2
Consider B5, for which the Kd was determined as 320 nM.

B6: unnamed (protein)
chain 1: B1 chain 1 with D103Y, E104W, V106W
chain 2: B1 chain 2
B6: the Kd was determined as 353 nM.

B7: unnamed (protein)
chain 1: B1 chain 1 with F32Y, D103Y, E104Y, V106Y
chain 2: B1 chain 2
Turning to B7, the Kd stood at 152 nM.

B8: unnamed (protein)
chain 1: B1 chain 1 with A99S, E104W, V106Y
chain 2: B1 chain 2
Molecule B8 registered a Kd of 126 nM.

B9: unnamed (protein)
chain 1: B1 chain 1 with E104W, Y105D, V106Y
chain 2: B1 chain 2
Molecule B9 displayed a Kd of 349 nM.

B10: unnamed (protein)
chain 1: B1 chain 1 with F32Y, A99S, E104W, V106Y
chain 2: B1 chain 2
On to B10, for which the Kd was found to be 96.3 nM.

B11: unnamed (protein)
chain 1: B1 chain 1 with F32Y, E104D, Y105A, V106Y
chain 2: B1 chain 2
In turn, B11 showed a Kd of 370 nM.

B12: unnamed (protein)
chain 1: B1 chain 1 with A99S, V106W
chain 2: B1 chain 2
As for B12, the Kd came to 31.6 nM.

B13: unnamed (protein)
chain 1: B1 chain 1 with D103Y, V106W
chain 2: B1 chain 2
The molecule B13 had a Kd of 190 nM.

B14: unnamed (protein)
chain 1: B1 chain 1 with F32Y, D103Y, V106W
chain 2: B1 chain 2
B14 registered a Kd of 285 nM.

B15: unnamed (protein)
chain 1: B1 chain 1 with F32Y, D103Y, V106Y
chain 2: B1 chain 2
Regarding B15, the Kd turned out to be 105 nM.

B16: unnamed (protein)
chain 1: B1 chain 1 with A99S, V106Y
chain 2: B1 chain 2
Take B16: the Kd came out at 103 nM.

B17: unnamed (protein)
chain 1: B1 chain 1 with E104Y, V106L
chain 2: B1 chain 2
Turning to B17, the equilibrium dissociation constant (Kd) was determined as 519 nM.

B18: unnamed (protein)
chain 1: B1 chain 1 with F32Y, E104Y, V106Y
chain 2: B1 chain 2
Regarding B18, the Kd worked out at 315 nM.

B19: unnamed (protein)
chain 1: B1 chain 1 with A99S, V106L
chain 2: B1 chain 2
In turn, B19 showed a Kd of 117 nM.
